Data from patent US20220177835A1, “METHODS OF GENERATING AND ISOLATING MIDBRAIN DOPAMINE NEURONS” (MEMORIAL SLOAN-KETTERING CANCER CENTER, priority 2019, published 2022).

B1: FGF18: FGF activator; member of the FGF8 subfamily of secreted signaling proteins (protein, UniProt O76093 28-207, looked up)
Fibroblast growth factor 18: EENVDFRIHVENQTRARDDVSRKQLRLYQLYSRTSGKHIQVLGRRISARGEDGDKYAQLLVETDTFGSQVRIKGKETEFYLCMNRKGKLVGKPDGTSKECVFIEKVLENNYTALMSAKYSGWYVGFTKKGRPRKGPKTRENQQDVHFMKRYPKGQPELQKPFKYTTVTKRSRRIRPTHPA

Key:
rodent GSK3β homologs = settings: cited from earlier work
[1] = system: NURR1:GFP hPSC derived mDAs; experiment: mRNA expression in NURR1:GFP sorted mDAs (WNT-Boost vs WNT-Boost+FGF18); assay type: cell-based, human; settings: WNT-Boost+FGF18 (day 12-day 16) vs WNT-Boost
Description: NURR1:GFP hPSCs were then cultured under WNT-Boost and WNT-boost+FGF18 (day 12-day 16) protocols. NURR1:GFP positive cells were isolated on day 25 of differentiation followed by continuous culturing until day 40. On day 40 of differentiation, these midbrain DA neurons expressed high TH along with FOXA2 (see FIG. 12).
(§1) These sorted cells were transplanted to immuno-deficient mice.

[2] = system: MEL1 hPSC derived CD49e weak mDAs; experiment: mRNA expression in CD49e sorted cells (WNT-Boost vs WNT-boost+FGF18); assay type: cell-based, human; settings: WNT-boost+FGF18 (day 12-day 16) vs WNT-Boost
Description: CD49e marker was tested in another hPSC line MEL1 for purifying midbrain DA neuron. Substantially pure mDA morphology was discovered in cells sorted with CD49e (Negative and/or weak expression) on day 25 of differentiation and continuously cultured for another 15 days (day 40 of differentiation) under the WNT-boost protocol and the WNT-boost+FGF18 (day 12-day 16) protocol (see FIGS. 19-20). These sorted mDAs had high TH immune-staining (see FIG. 21).

[3] = system: grafted NURR1:GFP sorted mDAs; experiment: Transplantation of NURR1:GFP sorted mDAs to immuno-deficient mice; assay type: in vivo, mouse
From the text: as §1

[4] = system: stem-cell-derived midbrain DA neurons and precursors; experiment: Marker expression in stem-cell-derived mDA differentiation under Wnt-Boost protocol with added FGF; assay type: cell-based, human
From the text: Midbrain DA neurons and precursors thereof were derived from stem cells under a Wnt-Boost protocol previously disclosed (the “7.5 M bump protocol (modification of GMP V2B)” protocol disclosed in International Publication No. WO 2016/196661, which is incorporated by reference in its entirety), which is referred to as “Wnt-Boost protocol” or “Boost protocol” hereinafter. It was discovered that EN1 expression was decreased starting from day 11 of the differentiation with Wnt-Boost protocol (see FIG. 1). Maintaining EN1 expression in the differentiated cells is important to generate mature and functional midbrain DA neurons. Thus, to maintain EN1 expression, the present example tested adding FGF8b treatment to the Wnt-Boost protocol at a late time of differentiation (see FIG. 2). Cells were contacted with FGF8b from day 9 to day 16, from day 10 to day 16, from day 11 to day 16, from day 12 to day 16, from day 13 to day 16, from day 14 to day 16, or from day 15 to day 16, in addition to the Wnt-Boost protocol, were tested. […] EN1 positive cells also expressed FOXA2 and LMX1A. […] SIX1 immuno-staining of the cells on day 30 of differentiation confirmed the mRNA results (see FIG. 5).
FGF8b, FGF17, and FGF18 were tested by being added them to the cell culture from day 12 to day 16 at a concentration of 100 ng/ml under the WNT-Boost protocol.

[5] = system: grafted differentiated cells in mouse; experiment: In vivo graft of differentiated cells (WNT-boost vs WNT-boost+FGF18) into intact mouse
From the text: The in vivo survival of differentiated cells generated from WNT-boost+FGF18 protocol was examined. Cells generated from WNT-boost and WNT-boost+FGF18 protocols were grafted into intact mouse […].

Molecule | IC50 values against rodent GSK3β homologs (rodent GSK3β homologs) | mRNA expression level of EN1 [1] | mRNA expression level of EN1 [2] | mRNA expression level of PITX2 [2] | neurite outgrowth from grafted region ([3]; FGF18 treated cells (WNT-Boost+FGF18 protocol) vs WNT-Boost) | cell survival of graft ([3]; sorted mDAs from WNT-Boost+FGF18 (day 12-day 16) protocol) | mRNA expression level of SMA ([4]; day 16 of differentiation, 100 ng/ml from day 12 to day 16, compared with FGF8b) | EN1 protein expression (immunostaining) ([4]; day 16 of differentiation, FGF added from day 9-15 to day 16 to Wnt-Boost protocol) | EN1 expression at the mature stage of differentiation ([4]; day 27 and day 40 (FIG. 8)) | expression levels of SMA1 and SIX1 ([4]; mature stage, FGF18 vs FGF8b treated cells) | expression level of PITX2 ([4]; mature stage, compared to cells differentiated by the WNT-Boost protocol) | striatal innervation with fibers ([5]; 1 month post grafting, WNT-boost+FGF18 vs WNT-boost) | maintenance of EN1 expression in vivo ([5]; cells from WNT-boost+FGF18 protocol vs WNT-boost protocol, grafted)
Cc1c[nH]c(-c2cnc(NCCNc3ccc(C#N)cn3)nc2-c2ccc(Cl)cc2Cl)n1 [CHIR99021, 6-(2-(4-(2,4-dichlorophenyl)-5-(4-methyl-1H-imidazol-2-yl)pyrimidin-2-ylamino)ethylamino)nicotinonitrile] | nanomolar | – | – | – | – | – | – | – | – | – | – | – | –
B1 | – | higher expression level of EN1 | higher expression level of EN1 | lower expression level of PITX2 | better neurite outgrowth from grafted region | excellent cell survival | reduced mRNA expression level of SMA | highly maintained in a FGF18 contacting duration dependent manner | still highly maintained | less expression levels of SMA1 and SIX1 than FGF8b treated cells | reduced expression level of PITX2 | better striatal innervation | improved maintenance of EN1 expression in vivo
